{"source": "paper PMC4856543", "key": {"[1]": {"molecular_target": "ID1 (independent inner domain of gp120, first design, isolate 93TH057) (HIV-1 clade A/E isolate 93TH057)", "assay": "SPR; Biacore T-100, 25°C, 1:1 Langmuir model"}, "[2]": {"molecular_target": "single-chain gp120BaL-sCD4 complex (full-length single-chain) (HIV-1 isolate BaL | not stated)", "assay": "SPR; Biacore T-100, 25°C, 1:1 Langmuir model"}, "[3]": {"molecular_target": "monomeric full-length BaL gp120 (HIV-1 isolate BaL)", "assay": "SPR; Biacore T-100, 25°C, 1:1 Langmuir model"}, "[4]": {"molecular_target": "ID2 (inner domain of gp120 stabilized by the C65-C115 disulfide, isolate 93TH057), from 293 cells (HIV-1 clade A/E isolate 93TH057)", "assay": "ITC; iTC200, 25°C, A32 IgG with FLSC or ID2; heats of dilution subtracted"}, "[5]": {"molecular_target": "single-chain gp120BaL-sCD4 complex (full-length single-chain) (HIV-1 isolate BaL | not stated)", "assay": "ITC; iTC200, 25°C, A32 IgG with FLSC or ID2; heats of dilution subtracted"}, "[6]": {"molecular_target": "ID2, stabilized inner domain of HIV-1 gp120 of clade A/E isolate 93TH057 (HIV-1 clade A/E isolate 93TH057)", "assay": "SPR; antibody immobilised, ID2 passed over at 0-200 nM; Biacore T-100, 25°C; 1:1 Langmuir model, BIAevaluation software; two experiments"}}}
{"substance": "mAb A32 (antibody)", "values": [{"measurement": "Kd", "setting": "[1]", "result": 9.3, "unit": "nM"}, {"measurement": "koff", "setting": "[1]", "result": 0.000785, "unit": "s⁻¹"}, {"measurement": "kon", "setting": "[1]", "result": 85000, "unit": "M⁻¹ s⁻¹"}, {"measurement": "Kd", "setting": "[2]", "result": 0.23, "unit": "nM"}, {"measurement": "koff", "setting": "[2]", "result": 0.000102, "unit": "s⁻¹"}, {"measurement": "kon", "setting": "[2]", "result": 443000, "unit": "M⁻¹ s⁻¹"}, {"measurement": "Kd", "setting": "[3]", "result": 3.2, "unit": "nM"}, {"measurement": "koff", "setting": "[3]", "result": 0.000437, "unit": "s⁻¹"}, {"measurement": "kon", "setting": "[3]", "result": 139000, "unit": "M⁻¹ s⁻¹"}, {"measurement": "Kd", "setting": "[4]", "result": 9, "unit": "nM"}, {"measurement": "dH", "setting": "[4]", "result": -2.55, "unit": "kcal/mol"}, {"measurement": "Kd", "setting": "[5]", "result": 11.5, "unit": "nM"}, {"measurement": "dH", "setting": "[5]", "result": -3.15, "unit": "kcal/mol"}, {"measurement": "Kd", "setting": "[6]", "result": 0.17, "unit": "nM"}, {"measurement": "koff", "setting": "[6]", "result": 0.000275, "unit": "s⁻¹"}, {"measurement": "kon", "setting": "[6]", "result": "1.65e+06", "unit": "M⁻¹ s⁻¹"}]}
